{"source": "patent US20190247312A1", "about": "“PHARMACEUTICAL PREPARATION FOR DELIVERY OF PEPTIDES AND PROTEINS” (priority 2016, published 2019)", "key": {"[1]": {"experiment": "Pharmacokinetics of orally dosed insulin emulsion particles in STZ-treated rats (Example 3), plasma insulin", "settings": "5 IU/kg s.c. control", "excerpt": "Parameters were estimated using Watson pharmacokinetic software 7.4.2 (Thermo Electron Corporation) using a non-compartmental approach consistent with the various routes of administration. All parameters were generated from Insulin individual animal concentrations in plasma. Parameters were estimated using nominal sampling times to be relative to the start of each dose administration (within an acceptable tolerance limit).\nThe area under the test item concentration versus time curve (AUC) was calculated using the linear-log linear trapezoidal method. AUC was not calculated for PK profiles with less than 3 consecutive quantifiable concentrations of test article at separate time points. When practical, the terminal elimination phase of each concentration versus time curve was identified using at least the final three observed concentration values. The slope of the terminal elimination phase was determined using linear regression on the unweighted concentration data. […] The parameters described below were reported to 3 significant figures."}, "blood glucose [2]": {"system": "blood glucose", "experiment": "Blood glucose after dosing in STZ type I diabetes model (Example 3)", "format": "in vivo, Sprague-Dawley(SD) rats", "settings": "5 IU/kg s.c. control", "method": "Animals were monitored for blood glucose levels daily over 10 days using a handheld glucometer to verify the disruption of insulin production. […] Prior to the experimental procedure, animals were weighed and randomized into groups based on body weight. All rats were then fasted for five hours prior to dosing.\nControl animals were given 5 IU/kg s.c. or 2.5 IU/kg i.v., while experimental animals were dosed orally with 50 IU/kg of microemulsion particles. Food was returned immediately post-dosage and blood was collected at the indicated time points (15, 30, 30, 60, 90, 120, 150, 180, 210, 240, 270, 300, 480, 720, and 1440) over a 24 hr. period. Whole blood was processed to plasma and analyzed for insulin quantity.\nMean insulin and glucose concentrations from the blood of animals were assessed following dosing of 5 IU/kg subcutaneous insulin, 50 IU/kg per os (p.o., i.e., orally) administered TA-3 (BCC with zinc), 50 IU/kg p.o. administered TA-4 (zinc without BCC), and 50 IU/kg p.o. administered TA-7 (BCC without zinc)."}, "blood glucose [3]": {"system": "blood glucose", "experiment": "Blood glucose after dosing in STZ type I diabetes model (Example 5)", "format": "in vivo, Sprague-Dawley(SD) rats", "settings": "5 IU/kg s.c. control"}, "[4]": {"settings": "in 0.01N HCl; cited from earlier work"}}, "data": [{"substance": "insulin", "values": [{"measurement": "blood insulin levels after s.c. administration", "setting": "[1]", "value": "rapid appearance and peak of insulin in the blood"}, {"measurement": "blood glucose after s.c. administration", "setting": "blood glucose [2]", "value": "corresponding declines in blood glucose"}, {"measurement": "blood glucose concentrations after s.c. injection", "setting": "blood glucose [3]", "value": "drop in blood glucose concentrations beginning just as insulin is detected in the blood"}, {"measurement": "solubility", "setting": "[4]", "value": 20, "unit": "mg/mL"}]}]}
